Read-outs that look alike come from different tables or passages of the source. Marks after values point to notes of the source that are not given here. *1 amine or outer side, *2 acyl side, *3 side chain or, on linkers, in order; H or OH if unused. Where a SMILES comes first, the peptide text is derived from it. [ ]: non-standard residue; d: D form. The star is where a group is joined. Exatecan = CC[C@@]1(O)C(=O)OCc2c1cc1n(c2=O)Cc2c-1nc1cc(F)c(C)c3c1c2[C@@H](N*)CC3; Hexanoyl(6-maleimido) = O=C1C=CC(=O)N1CCCCCC(=O)*; X1 = C[C@@H](OCN[*:1])C(=O)[*:2]; X2 = O=C(COCCOCN[*:1])[*:2]
What was measured:
[1] = more active than the common chemotherapy drug irinotecan; cited from earlier work
[2] = Assay 8: stability of linker-drug compounds; assay type: physicochemical; settings: high temperature, high humidity, illumination or 0.5% BSA-PBS; LC-MS/MS; Deruxtecan also studied
Method: Different linker-drug compounds such as Deruxtecan, JSSW-001, and ZW-002 were studied under high temperature (40° C., 60° C.), high humidity (25° C./75% RH and 25° C./92.5% RH), illumination (illuminance 4500 Lux, near-UV energy […]), or 0.5% BSA-PBS conditions. Samples were collected at different times after exposure to these conditions, and the concentration changes of the linker-drug compounds in the samples were detected using the LC-MS/MS method.

[3] = Phase Ib, cited from earlier work
[4] = system: human lung adenocarcinoma PC9-GR (gefitinib-resistant cell) xenograft tumour; experiment: Assay 3: efficacy of patritumab-ADC on PC9-GR xenograft tumour; assay type: in vivo, NU/NU mice; settings: 3 mg/kg i.v./qw*4 w
[5] = system: human colon cancer SW620 xenograft tumour; experiment: Assay 15: efficacy of patritumab-ADC on SW620 xenograft tumour; assay type: in vivo, NU/NU mice; settings: 7 mg/kg i.v./single administration
Text: The assay was terminated on day 26 after the administration. The inhibition effects of patritumab-DXD ADC (DAR=7.3) and patritumab-JSSW-001 ADC (DAR=7.36) on human colon cancer SW620 xenograft tumour in nude mice were compared.

[6] = system: human colorectal cancer DiFi xenograft tumour; experiment: Assay 16: efficacy of patritumab-ADC on DiFi xenograft tumour; assay type: in vivo, NU/NU mice; settings: Table 29: 10 mg/kg i.v./qw*3w
Text: The assay was terminated on day 28 after the administration.

[7] = early data published by the company; cited from earlier work
EGFR on MDA-MB-468 cells [8] = molecular target: T1, EGFR on MDA-MB-468 cells (human, UniProt P00533 25-1210); experiment: flow cytometry on MDA-MB-468 cells, pH 7.4; ratio of EC50 to SWY2110
T1 construct: whole, on cells; also called epidermal growth factor receptor; HER1

EGFR on MDA-MB-468 cells [9] = molecular target: T1, EGFR on MDA-MB-468 cells; experiment: flow cytometry on MDA-MB-468 cells, antibody diluted in PBS pH 7.4, FITC anti-human Fc
EGFR on MDA-MB-468 cells [10] = molecular target: T1, EGFR on MDA-MB-468 cells; experiment: flow cytometry on MDA-MB-468 cells, antibody diluted in PBS pH 6.0, FITC anti-human Fc
EGFR on MDA-MB-468 cells [11] = molecular target: T1, EGFR on MDA-MB-468 cells; experiment: flow cytometry on MDA-MB-468 cells, pH 6.0; ratio of EC50 to SWY2110

## CC[C@@]1(O)C(=O)OCc2c1cc1n(c2=O)Cc2c-1nc1cc(F)c(C)c3c1c2[C@@H](NC(=O)CO)CC3 [DXd]
[1]
  activity relative to irinotecan: 10 times

## CC[C@@]1(O)C(=O)OCc2c1cc1n(c2=O)Cc2c-1nc1cc(F)c(C)c3c1c2[C@@H](NC(=O)[C@@H](C)OCNC(=O)CNC(=O)[C@H](Cc1ccccc1)NC(=O)CNC(=O)CNC(=O)CCCCCN1C(=O)C=CC1=O)CC3 [JSSW-001, N-((2R,10S)-10-benzyl-1-(((1S,9S)-9-ethyl-5-fluoro-9-hydroxy-4-methyl-10,13-dioxo-2,3,9,10,13,15-hexahydro-1H,12H-benzo[de]pyrano[3′,4′:6,7]indolizino[1,2-b]quinolin-1-yl)amino)-2-methyl-1,6,9,12,15-pentaoxo-3-oxa-5,8,11,14-tetraazahexadecan-16-yl)-6-(2,5-dioxo-2,5-dihydro-1H-pyrrol-1-yl)hexanamide] ({Hexanoyl(6-maleimido)}-GGFG[X1]-Exatecan)
[2]
  stability of linker-drug compound: better stability

## CC[C@@]1(O)C(=O)OCc2c1cc1n(c2=O)Cc2c-1nc1cc(F)c(C)c3c1c2[C@@H](NC(=O)COCCOCNC(=O)CNC(=O)[C@H](Cc1ccccc1)NC(=O)CNC(=O)CNC(=O)CCCCCN1C(=O)C=CC1=O)CC3 [ZW-002, N—((S)-13-benzyl-1-(((1S,9S)-9-ethyl-5-fluoro-9-hydroxy-4-methyl-10,13-dioxo-2,3,9,10,13,15-hexahydro-1H,12H-benzo[de]pyrano[3′,4′:6,7]indolizino[1,2-b]quinolin-1-yl)amino)-1,9,12,15,18-pentaoxo-3,6-dioxa-8,11,14,17-tetraazanonadecan-19-yl)-6-(2,5-dioxo-2,5-dihydro-1H-pyrrol-1-yl)hexanamide] ({Hexanoyl(6-maleimido)}-GGFG[X2]-Exatecan)
[2]
  stability of linker-drug compound: better stability

## MRG003
[3]; patients with nasopharyngeal carcinoma (4/9)
  objective response rate (ORR): 44%
[3]; patients with non-small cell lung cancer (4/10)
  objective response rate (ORR): 40%

## patritumab-DXD ADC (DAR = 7.3): patritumab antibody conjugated with commercially available Deruxtecan [reference compound]
[4]
  TGI(%) Day 28: 59.5%
[4]; 28 days after administration
  Tumour Volume: 373.4 ± 102.8** mm^3
[5]
  TGI(%) Day 21: 73.2%
[5]; 21 days after administration
  Tumour Volume: 461.3 ± 278.1*** mm^3
[6]; 28 days after administration
  Tumour Volume: 512.5 ± 470.8* mm^3
[6]
  TGI(%) Day 28: 54.0%

B1: BA3011 (conjugate, chains of the INN, looked up)
VH: EVQLVQSGAEVKKPGATVKISCKVSGYSFWGATMNWIRQPPGKGLEWIGLIKPSNGGTSYNQKFKGRVTISADKSISTAYLQWSSLKASDTAMYYCAHGHYESYEAMDYWGQGTLVTVSS
VL: DIQMTQSPSSLSASVGDRVTITCKASQDVVSAVAWYQQKPGQAPRLLIYWQDTRHTGVPSRFSGSGSGTEFTLTISSLQPDDFATYYCQEHFSPPLTFGQGTKVEIK
modifications: vedotin (MMAE) payload
[7]
  target-related toxicity: no obvious target-related toxicity

B2: EGFR antibody SWY2111 (antibody, human IgG1, kappa, V domains shown)
VH: QVQLQESGPGLVKPSETLSLTCTVSGFSLSDYDVHWVRQAPGKGLEWLGVIWSGGNTDYNTPFTSRLTISVDTSKNQFSLKLSSVTAADTAVYYCARALDDYDYEFAYWGQGTLVTVSS
VL: EIVLTQSPDFQSVTPKEKVTITCRASQSIGTNIHWYQQKPDQSPKLLIKYASESISGIPSRFSGSGSGTDFTLTINSLEAEDAATYYCQQNNEWPTSFGQGTKLEIKR
EGFR on MDA-MB-468 cells [8]
  fold decrease of affinity compared to SWY2110: 3 times
EGFR on MDA-MB-468 cells [9]
  EC50: 1.45 nM
EGFR on MDA-MB-468 cells [10]
  EC50: 0.6 nM
EGFR on MDA-MB-468 cells [11]
  fold change of affinity compared to SWY2110: 1.2 to 1.3 times

B3: EGFR antibody SWY2112 (antibody, human IgG1, kappa, V domains shown)
VH: QVQLQESGPGLVKPSETLSLTCTVSGFSLSEYDVHWVRQAPGKGLEWLGVIWSGGNTDYNTPFTSRLTISVDTSKNQFSLKLSSVTAADTAVYYCARALDDYDYEFAYWGQGTLVTVSS
VL: EIVLTQSPDFQSVTPKEKVTITCRASQSIGTNIHWYQQKPDQSPKLLIKYASESISGIPSRFSGSGSGTDFTLTINSLEAEDAATYYCQQNNEWPTSFGQGTKLEIKR
EGFR on MDA-MB-468 cells [9]
  EC50: 2.35 nM
EGFR on MDA-MB-468 cells [10]
  EC50: 0.67 nM
EGFR on MDA-MB-468 cells [11]
  fold change of affinity compared to SWY2110: 1.2 to 1.3 times

B4: EGFR antibody SWY2113 (antibody, human IgG1, kappa, V domains shown)
VH: QVQLQESGPGLVKPSETLSLTCTVSGFSLSHYDVHWVRQAPGKGLEWLGVIWSGGNTDYNTPFTSRLTISVDTSKNQFSLKLSSVTAADTAVYYCARALDDYDYEFAYWGQGTLVTVSS
VL: EIVLTQSPDFQSVTPKEKVTITCRASQSIGTNIHWYQQKPDQSPKLLIKYASESISGIPSRFSGSGSGTDFTLTINSLEAEDAATYYCQQNNEWPTSFGQGTKLEIKR
EGFR on MDA-MB-468 cells [8]
  fold decrease of affinity compared to SWY2110: 3 to 9.7 times
EGFR on MDA-MB-468 cells [9]
  EC50: 4.76 nM
EGFR on MDA-MB-468 cells [10]
  EC50: 3.39 nM
EGFR on MDA-MB-468 cells [11]
  fold decrease of affinity compared to SWY2110: 6.6 times

B5: BA3021 (conjugate, chains of the INN, looked up)
VH: EVQLVQSGAEVKKPGESLRISCKGSGYTFTEYTMHWVRQAPGQGLEWMGGINTNNGGTGYNQKFKGRVTISADKSISTAYLQWSSLKASDTAMYYCAHGSLYSYGNSYFDYWGQGTLVTVSS
VL: AIQLTQSPSSLSASVGDRVTITCSATSSVSYMHWYLQKPGQSPQLLIYGTSNLASGVPDRFSGSGSGTDFTLKISRVEAEDVGVYYCQQRSSYPFTFGQGTKVEIK
modifications: vedotin (MMAE) payload
[7]
  target-related toxicity: no obvious target-related toxicity

— patent publication US20250345445A1, “ANTIBODY-DRUG CONJUGATE AND USE THEREOF” (CSPC MEGALITH BIOPHARMACEUTICAL CO., LTD., priority 2021, published 2025)
